Experimental data taken from publication PMC7589773.

Target: AAV-DJ capsid viral protein (VP) subunit of the empty capsid (virus-like particle)
Assay: cryo-EM structure; empty AAV-DJ capsids (VLPs) in 50 mM HEPES, 25 mM MgCl2, 25 mM NaCl, pH 7.4; I1 symmetry imposed; 1.56 Å resolution

Substance: AAV-DJ capsid viral protein (VP) subunit of the empty capsid (virus-like particle)
- stoichiometry N: 60
